Measured values from paper PMC2928020.
pKd: −log10 of the molar value.

Molecular target: FITC-labeled alanine-extended version of the β2AR C-terminal peptide (TNDSLLA) (human)
Test: fluorescence polarisation

pKd: < 4.00
Substance: SNX27 PDZ domain, wild type (residues 39-131 of rat SNX27) (from UniProt Q8K4V4 39-131) (domain or fragment)
